Positions count from the first letter of the chain named. One block for each binder: values may come before it.
Tests used:
[1] = target: T1, full-length untagged human GPNMB expressed on cells (human, UniProt Q14956 23-572); assay: FACS, FS293-huGPNMB+ cells
T1 construct: also used here for GPNMB on human monocyte-derived macrophages in the functional assays; also called huGPNMB; Freestyle293-huGPNMB+
T1 sequence: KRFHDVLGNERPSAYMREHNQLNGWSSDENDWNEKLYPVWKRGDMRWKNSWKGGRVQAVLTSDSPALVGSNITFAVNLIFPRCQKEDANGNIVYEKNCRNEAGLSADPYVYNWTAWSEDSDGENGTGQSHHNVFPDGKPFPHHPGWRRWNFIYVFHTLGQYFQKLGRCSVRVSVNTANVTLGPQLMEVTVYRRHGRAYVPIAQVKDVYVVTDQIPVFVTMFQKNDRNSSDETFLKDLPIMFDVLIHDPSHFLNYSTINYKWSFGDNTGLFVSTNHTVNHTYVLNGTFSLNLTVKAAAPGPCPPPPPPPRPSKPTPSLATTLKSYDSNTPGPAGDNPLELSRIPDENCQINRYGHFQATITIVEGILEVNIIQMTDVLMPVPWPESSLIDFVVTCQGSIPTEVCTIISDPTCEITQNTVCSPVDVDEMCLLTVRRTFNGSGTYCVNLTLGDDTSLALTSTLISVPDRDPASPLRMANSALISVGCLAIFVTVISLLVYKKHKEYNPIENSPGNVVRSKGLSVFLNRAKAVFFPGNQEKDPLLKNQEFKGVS
Method: Recombinant anti-GPNMB antibodies of the present disclosure were examined for their ability to bind human and/or mouse GPNMB expressed on Freestyle293-huGPNMB+ or B16F10 cells, respectively. B16F10 cells are a murine melanoma cell line from a C57BL/6J mouse that endogenously express high levels of mouse GPNMB. The antibodies were also tested for their ability to bind to a human macrophage cell line (U937 cells) engineered to express human GPNMB. Cells were harvested, plated at 100,000 cells/well in a 96-well round bottom plate, and incubated in 100 μl FACS buffer (PBS containing 2% FBS, 2 mM EDTA) containing anti-GPNMB monoclonal antibodies of the present disclosure for 30 minutes on ice. Cells were then washed and incubated in 100 ul FACS buffer containing 1 μg/ml APC-conjugated anti-human IgG secondary antibody for 30 minutes in ice. Cells were washed twice in cold FACS buffer and acquired on a BD FACS Canto. Data analysis and calculation of MFI values was performed with FlowJo (TreeStar) software version 10.0.7.
Importantly, several anti-GPNMB antibodies of the present disclosure also bound to the human macrophage cell line U937 cells engineered to express human GPNMB (U937/huGPNMB+) (FIG. 2C). In FIG. 2C, the first data point in each pair corresponds to U937/huGPNMB+ cells, and the second data point in each pair corresponds to U937/huGPNMB− cells. No anti-GPNMB antibodies bound to U937 cells deficient in human GPNMB expression (U937/huGPNMB−).

[2] = target: T2, soluble human GPNMB (recombinant extracellular domain) (human, UniProt Q14956 23-498); assay: SPR Carterra, Ab immobilized
T2 construct: also called huGPNMB; recombinant human GPNMB extracellular domain; not shown: C-terminal polyhistidine or Avi-His tag
T2 sequence: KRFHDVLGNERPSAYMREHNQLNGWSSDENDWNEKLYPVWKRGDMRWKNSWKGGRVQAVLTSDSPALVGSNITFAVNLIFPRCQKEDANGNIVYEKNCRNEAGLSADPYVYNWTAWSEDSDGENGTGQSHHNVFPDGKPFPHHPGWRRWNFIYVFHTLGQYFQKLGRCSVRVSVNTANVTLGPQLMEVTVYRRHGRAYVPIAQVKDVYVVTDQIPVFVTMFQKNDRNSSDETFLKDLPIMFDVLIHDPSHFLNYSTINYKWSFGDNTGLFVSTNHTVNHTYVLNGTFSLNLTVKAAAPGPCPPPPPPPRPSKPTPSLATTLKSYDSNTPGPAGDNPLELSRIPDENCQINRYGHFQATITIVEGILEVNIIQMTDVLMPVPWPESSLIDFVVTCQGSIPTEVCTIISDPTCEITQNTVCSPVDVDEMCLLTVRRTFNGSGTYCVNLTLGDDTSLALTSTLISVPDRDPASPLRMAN
Method: Binding kinetics of human anti-GPNMB IgG1 antibodies of the present disclosure to human, cynomolgus, and mouse GPNMB were evaluated using a Carterra LSA instrument (Carterra, Salt Lake City, UT). […] A HC200M sensor chip (Carterra) was activated using the single channel flow cell with a 7-minute injection of a 1:1:1 mixture of 100 mM MES pH 5.5, 100 mM sulfo-NHS, 400 mM EDC (all reconstituted in MES pH 5.5; 100 μl of each mixed in vial immediately before running assay). After switching to the multi-channel array flow cell, the antibodies were injected over the activated chip in a 96-spot array for 15 minutes. The remaining unconjugated active groups on the chip were then blocked by injecting 1M Ethanolamine pH 8.5 (Carterra) for 7 minutes using the single channel flow cell.
After priming with running buffer (HBS-EP+, Teknova) with 0.5 mg/ml BSA (Sigma), the immobilized anti-GPNMB antibodies were tested for their ability to bind to several forms of recombinant GPNMB extracellular domain, including human, cynomolgus, and mouse orthologs as described above. Estimates of affinity were generated by injecting each analyte over the entire antibody array using the single channel flow cell. GPNMB analytes were diluted to 2.5, 7.4, 22, 67, 200, and 600 nM in running buffer, and injected in serial from lowest to highest concentration without regeneration. Two buffer blanks were run between each series (one species per series). Data were processed and analyzed using Kinetics high-throughput kinetics analysis software (Carterra).

[3] = target: T1, full-length untagged human GPNMB …; assay: FACS titration, FS293-huGPNMB+ cells
Method: Cell-based binding measurements were also performed to measure the apparent affinities of anti-GPNMB antibodies of the present disclosure to cell-surface expressed GPNMB. Serial dilutions of the monoclonal anti-GPNMB antibodies were added to 100,000 Freestyle293-huGPNMB+ or B16F10 cells and allowed to achieve binding equilibrium at 4° C. After addition of fluorescently labeled secondary antibody and brief washing steps, MFI values as a function of titrated antibody concentration was recorded via FACS analysis. Curves were fit using nonlinear regression analysis with Graphpad Prism 6 software.

- MFI fold over background [1]: 104 fold
- Kd [2]: 21 nM
- koff [2]: 0.0015 s⁻¹
- kon [2]: 71000 M⁻¹ s⁻¹
- EC50 [3]: 1.33 nM
B1: anti-GPNMB antibody GPN-35 (antibody, human IgG1, V domains shown)
VH: EVQLVESGGGSVRPGRSLKLSCAAAGFTFSDYYMTWVRQAPTKGLEWVASINHDGGGTYYRDSVKGRFTISRDNARSSLYLQMDSLRSEDTGTYYCTTRAGWHWGQGVMVTVSS
VL: DIQMTQSPASLSASLGETVSIECLASEDIYNYLTWYQQKPGKSPQVLIYSASGLQDGVPSRFSGSGSGRQYSLKINGLESEDAATYFCLQDSEYPLTFGSGTKLEIK
notes: chimeric

- MFI fold over background [1]: 7.6 fold
- Kd [2]: 37.9 nM
- koff [2]: 0.0032 s⁻¹
- kon [2]: 86000 M⁻¹ s⁻¹
- EC50 [3]: 1.27 nM
B2: anti-GPNMB antibody GPN-52 (antibody, human IgG1, V domains shown)
VH: DVQLQESGPGLVKPSQTVFLTCTVTGISITTGNYRWSWIRQFPGNKLEWIGYIYYSGTITYNPSLTSRITITRDTPKNEFFLEMNSLTAEDTATYYCARDLTHWYFDVWGTGTTVTVSS
VL: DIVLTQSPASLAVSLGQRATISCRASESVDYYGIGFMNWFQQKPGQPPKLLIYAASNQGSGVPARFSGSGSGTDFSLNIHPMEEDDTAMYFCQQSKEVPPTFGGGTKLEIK
notes: chimeric

- MFI fold over background [1]: 18.6 fold
- Kd [2]: 50.1 nM
- koff [2]: 0.0035 s⁻¹
- kon [2]: 71000 M⁻¹ s⁻¹
- EC50 [3]: 7.25 nM
B3: anti-GPNMB antibody GPN-61 (antibody, human IgG1, V domains shown)
VH: B2 VH with I69T, E79Q, N85S, Y96F, T102R
VL: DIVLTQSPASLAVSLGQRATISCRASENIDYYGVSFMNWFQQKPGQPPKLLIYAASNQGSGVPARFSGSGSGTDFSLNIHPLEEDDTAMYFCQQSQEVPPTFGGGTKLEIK
notes: chimeric

- MFI fold over background [1]: 105 fold
- Kd [2]: 1 nM
- koff [2]: 0.00011 s⁻¹
- kon [2]: 110000 M⁻¹ s⁻¹
- EC50 [3]: 0.75 nM
B4: anti-GPNMB antibody GPN-37 (antibody, human IgG1, V domains shown)
VH: EVQLVESGGGLVQPGRSLKLSCAASGFTFSSKSGMAWVRQAPTKGLEWVASISNGGGDTYYRDSVKGRFTISRDNAKNTQYLQMDSLRPEDTATYYCARHRDYGYDAYFDYWGQGVMVTVSS
VL: DIQMTQSPASLSASLGETVTIECLASEDIYSSLAWYQQKPGKSPQLLIYDASSLQDGVPSRFSGSESGTQYSLEINSLQSEDAATYFCQQHHDYPYTFGAGTKLELK
notes: chimeric

- MFI fold over background [1]: 74.4 fold
- Kd [2]: 36 nM
- koff [2]: 0.0014 s⁻¹
- kon [2]: 40000 M⁻¹ s⁻¹
- EC50 [3]: 0.87 nM
B5: anti-GPNMB antibody GPN-08 (antibody, human IgG1, V domains shown)
VH: QVQLQQPGAELVKPGASVKLSCRASGYTFTSYWLHWVKQRPGQGLEWIGEINPSDGRTNYIEKVKTKATLTVDKSSSTAYMQLSSLTSEDSAVYYCARSGGNYAWFAYWGQGTLVTVSA
VL: DIVMTQSHKFMSTSVGDRVSITCKASQDVSPSVAWYQQRPGQSPKLLIYSASYRYTGVPDRFTGSGSGTDFTFTISSVQAEDLAVYYCQQHYSIPLTFGAGTKLELK
notes: chimeric

- MFI fold over background [1]: 125 fold
- Kd [2]: 0.4 nM
- koff [2]: 6.3e-05 s⁻¹
- kon [2]: 190000 M⁻¹ s⁻¹
- EC50 [3]: 0.41 nM
B6: anti-GPNMB antibody GPN-34 (antibody, human IgG1, V domains shown)
VH: EVKLVESGGGLVQPGRSLKLSCAASGFNFYDYWMGWVRQAPGKGLEWIGEINKDSRTINYTPFLKDRFTISRDNAQNTLYLQMSKLGSEDTAIYYCAREGRVPFDYWGQGVMVTVSS
VL: DIQMTQSPSSMSVSLGDTVTIPCRASQDVGSYVNWFQQKPGKSPRHMIYRATNLADGVPSRFSGSRSGADYSLTISSLESEDVADYHCQQYAEYPLTFGSGTKLEIK
notes: chimeric

- MFI fold over background [1]: 89.2 fold
- Kd [2]: 29.6 nM
- koff [2]: 0.0019 s⁻¹
- kon [2]: 100000 M⁻¹ s⁻¹
- EC50 [3]: 3.38 nM
B7: anti-GPNMB antibody GPN-03 (antibody, human IgG1, V domains shown)
VH: QVQLQQSGPELVKPGASVKLSCKASGYTFTNYYMYWVKQRPGQGLEWIGEINPRNGGTNFNEKFKSKATLTVDKSSSTAYMQLSSLTFEDSAVYYCTTGLAYWGQGTLVTVSA
VL: DVVMTQTPLSLPVSLGDQASISCRSSQSLVHSDGNTYLHWYLQKPGQSPKLLIYKVSTRFSGVPDRFSGSGSGTDFTLKISRVEAEDLGVYFCSQSTHVPWTFGGGTKLEIK
notes: chimeric

- MFI fold over background [1]: 66.4 fold
- Kd [2]: 73.9 nM
- koff [2]: 0.0032 s⁻¹
- kon [2]: 54000 M⁻¹ s⁻¹
- EC50 [3]: 1.61 nM
B8: anti-GPNMB antibody GPN-06 (antibody, human IgG1, V domains shown)
VH: B7 VH with P9A, P53T, F88S, L100F
VL: DIQMTQSPASLSASVGETVTITCRASENIYSYLVWYQQNQGKSPQLLVYNAKTLAEGVPSRFSGSGSGTQFSLKINSLQPEDFGTYYCQHHYGTPFTFGSGTKLEIK
notes: chimeric
